From the emibetuzumab library of Makowski et al. (2022)

B1: VH:VL chains; a variant is named by its letters at X, in order (parent)
chain 1: QVQLVQSGAEVKKPGASVKVSCKASGYTFTDYXMHWVRQAPGQGLEWMGXVNPNXXXTTYNQKFEGRVTMTTDTSTSTAYMELRSLRSDDTAVYYCARXNXLDXWGQGTTVTVSS
chain 2: DIQMTQSPSSLSASVGDRVTITCSVSSSVSSIYLHWYQQKPGKAPKLLIYSTSNLASGVPSRFSGSGSGTDFTLTISSLQPEDFATYYCQVYSGYPLTFGGGTKVEIK

Variants of: B1
Assay: yeast display scFab, FACS + sequencing
Outline: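 Non-specific binding was called from deep sequencing of sorted yeast cells displaying a heavy-chain CDR mutant scFab library. Cells labelled with anti-Myc and biotinylated ovalbumin (260 μg/mL in PBSB, 3 h, room temperature) or soluble membrane proteins (130 μg/mL, 20 min on ice) were FACS-sorted, collecting the top 25% and bottom 10% of binders from two replicates. A sequence was positive when present in ≥3 of 4 pooled positive samples and absent from all negatives, and negative under the converse rule.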

Variant | non-specific binding call
SRARDFGY | no binding
YRAKGALS | binds
YRAKGALA | binds
YRAKGALF | binds
YRAGGDSA | no binding
VRAGGFGA | binds
FRAGGVGV | binds
FRAGSAVV | binds
DRAGDYLY | no binding
DRAGDYLV | no binding
YRAKSSGV | binds
VRAGDDSD | no binding
VRAGGDWV | no binding
YRARGAWV | binds
YRARGAWF | binds
YRARGAWD | binds
YRARGAWS | binds
YRARGAWY | binds
VRAGGSAD | binds
YRAGDFGV | no binding
FRAGGSVD | binds
YRAGASAD | binds
YRAGASAV | binds
YRARGAGY | binds
YRARGAGF | binds

Variant | non-specific binding call
YRARGAGV | binds
YRARGAGS | binds
YRARGAGA | binds
VRAGADWY | no binding
YRAGSSGV | binds
YRAGSSGD | binds
YRAGSSGA | binds
YRAKGAVV | binds
VRARGDVS | no binding
VRARGFVV | binds
YRAGTAAA | binds
FRAGGSSV | binds
VRAGDAGA | no binding
VRAGDAGV | no binding
YRAGDAAD | no binding
ARAKTSWV | binds
DRAGDDSA | no binding
YRAGGDAD | binds
YRAGDDVY | no binding
YRAGDDVA | no binding
DRAGDSGA | no binding
DRAGDSGF | no binding
VRAGDSSA | no binding
VRAGDSSV | no binding
YRARGALS | binds

Variant | non-specific binding call
YRARGALV | binds
VRARGSSF | binds
VRAGDSGY | no binding
DRAGDSVD | no binding
YRAGGALS | binds
ARAGDYLV | no binding
DRAGDDWV | no binding
DRAGDDWA | no binding
DRAGDDWY | no binding
DRAGDAVD | no binding
DRAGDAVS | no binding
DRAGDAGS | no binding
DRAGDAGV | no binding
DRAGDAGY | no binding
DRAGDAGA | no binding
YRARGDGV | no binding
ARAGDAVA | no binding
ARAGDAVV | no binding
VRAGGSVA | binds
VRAGSSWD | binds
VRAGDDVA | no binding
VRAGDDVF | no binding
VRAGDDVD | no binding
VRAGGAWV | binds
DRAGDAAA | no binding

Variant | non-specific binding call
DRAGDAAV | no binding
YRAGGVGD | binds
YRAGGVGS | binds
YRAGGVGF | binds
DRAGDSWD | no binding
DRAGDSWA | no binding
VRAGGDLA | no binding
YRAGDSSA | no binding
YRAGDSSS | no binding
YRAKGAAD | binds
YRAKGAAA | binds
YRAKGAAV | binds
YRAGSAAD | binds
YRAGSAAA | binds
YRARGSSS | binds
VRAKGAGY | binds
YRAKSAVF | binds
FRAGGAWV | binds
FRAGGAWY | binds
FRAGGAWS | binds
YRAKGYGA | binds
FRAGSSGV | binds
FRAGSSWD | binds
YRAGDAVV | no binding
YRARGSAA | binds

Variant | non-specific binding call
YRARGSAD | binds
YRARGSAV | binds
YRAGDSVD | no binding
VRAGDYLV | no binding
FRAGGAAA | binds
FRAGGAAV | binds
FRAGGSGA | binds
FRAGGSGD | binds
ARARGSGA | binds
VRARGAGF | binds
DRAGDDAV | no binding
SRARGAGA | binds
YRAGSASD | binds
YRAGDSWD | no binding
DRAGDDVY | no binding
DRAGDDVF | no binding
DRAGDDVV | no binding
ARAGGAAA | binds
VRAGSSLD | no binding
YRAGGFVV | binds
YRAGGFVA | binds
FRAGSAWS | binds
YRAKGSWD | binds
VRAGGDAV | no binding
VRAGGDAA | no binding

Variant | non-specific binding call
YRAKGAGS | binds
YRAKGAGV | binds
YRAKGAGA | binds
YRAKGAGD | binds
YRAKGSLA | binds
YRAKGSLD | binds
SRAGGSLY | binds
YRAGSSAD | binds
YRARGASA | binds
DRAGDASD | no binding
YRAGGFGY | binds
YRAGGFGS | binds
DRAGDDLY | no binding
DRAGDDLA | no binding
VRARGAWF | binds
VRAGGDVF | no binding
YRAKSSSS | binds
DRAGDSLD | no binding
DRAGDSLV | no binding
YRAKGSGV | binds
YRAKGSGD | binds
YRAKGVGA | binds
ARAGGSVV | no binding
YRAGGAGY | binds
YRAGGVVA | binds

Variant | non-specific binding call
VRAGADVY | no binding
VRAGADVV | no binding
FRARGSGA | binds
FRARGAAV | binds
FRARGAAY | binds
VRAGDDAV | no binding
YRAGGASA | binds
FRAGGSAA | binds
VRAGGDSF | no binding
YRAKGSAD | binds
YRAKGSAV | binds
YRAKGSAA | binds
YRAGGSWF | binds
FRAGGALS | binds
FRAKGSAD | binds
DRAGDALD | no binding
YRAGTSGD | binds
YRAKGAWY | binds
YRAGGAWY | binds
VRAGAFSV | no binding
DRAGGAGD | no binding
YRAKSALV | binds
YRARGSLF | binds
YRARGSLA | binds
YRAGDALD | no binding

Variant | non-specific binding call
VRAGGSGD | binds
YRAKGSVD | binds
YRAGASGA | binds
YRAGASGD | binds
YRARDDVF | no binding
FRAGDYLV | no binding
ARAGSFWA | binds
YRAKGSSS | binds
FRAGGAGV | binds
FRAGGAGA | binds
YRARGAVS | binds
YRARGAVA | binds
VRAGDSLD | no binding
VRAGDSLS | no binding
YRARGDLD | binds
SRARGAAA | binds
YRAGGYWY | binds
YRAGGSSY | binds
VRARGAAY | binds
VRARGAAD | no binding
YRAGTAVD | binds
YRAGTAVS | binds
FRAGDAGV | binds
YRAGDSGY | no binding
YRARGFGV | binds

Variant | non-specific binding call
YRARGFGA | binds
YRAGSSWD | binds
YRAGGYGY | binds
YRAGGYGD | binds
YRAGGYGF | binds
SRAGDYLV | no binding
ARAGSAWA | binds
YRAGGAAF | binds
VRARGALV | binds
YRAKDALA | no binding
YRARGAAY | binds
YRARGAAS | binds
VRAGDALV | no binding
VRAGDSVA | no binding
YRAGGSVA | binds
FRARGAGV | binds
FRARGAGS | binds
FRARGAGA | binds
YRARGSGV | binds
YRARGSGY | binds
VRAKGSAD | binds
DRAGDSSA | no binding
YRAGGYVA | binds
YRAGGYVD | binds
YRAGGYVF | binds

Variant | non-specific binding call
ARAGDDAV | no binding
VRARGDGY | no binding
FRAGGAVY | binds
FRAGGAVD | binds
YRAGGVAV | binds
DRAGDDGY | no binding
DRAGDDGA | no binding
DRAGDDGS | no binding
DRAGDDGD | no binding
VRAGDDGS | no binding
VRAGDDGA | no binding
VRAGDDGV | no binding
YRAGGDWY | binds
FRAGGSLY | binds
FRAGGSLF | binds
YRAGGYAA | binds
YRAGASLA | binds
